T1: recombinant mRGMb-HIS (R&D) (mouse, UniProt Q7TQ33 49-415, limits assumed)
T1 construct: Bought (R&D); also called monomeric mRGMb-HIS; not shown: HIS tag
T1 sequence: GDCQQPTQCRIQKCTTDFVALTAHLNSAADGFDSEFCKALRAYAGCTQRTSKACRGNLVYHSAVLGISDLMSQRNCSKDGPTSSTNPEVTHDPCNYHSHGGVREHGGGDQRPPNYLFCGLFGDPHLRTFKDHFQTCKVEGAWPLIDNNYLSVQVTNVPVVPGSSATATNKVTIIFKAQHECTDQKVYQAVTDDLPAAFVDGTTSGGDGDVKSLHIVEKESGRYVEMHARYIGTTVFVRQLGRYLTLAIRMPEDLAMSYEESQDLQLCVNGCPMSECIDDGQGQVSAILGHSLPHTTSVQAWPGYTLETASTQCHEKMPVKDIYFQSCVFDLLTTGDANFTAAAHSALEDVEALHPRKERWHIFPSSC

T2: mouse RGMb on mRGMb transfected 300 cells (mouse, UniProt Q7TQ33 49-415)
T2 construct: also called 300-mRGMb cells; DRAGON
T2 sequence: T1 sequence

B1: mPD-L2-hIgG (R&D) (Fc fusion, mouse, UniProt Q9WUL5 20-219, looked up)
chain: LFTVTAPKEVYTVDVGSSVSLECDFDRRECTELEGIRASLQKVENDTSLQSERATLLEEQLPLGKALFHIPSVQVRDSGQYRCLVICGAAWDYKYLTVKVKASYMRIDTRILEVPGTGEVQLTCQARGYPLAEVSWQNVSVPANTSHIRTPEGLYQVTSVLRLKPQPSRNFSCMFWNAHMKELTSAIIDPLSRMEPKVPR
notes: The text of the result says only 'PD-L2-Ig'; also called PD-L2-Ig; mPD-L2-Ig; not shown: human IgG part of the bought fusion protein
B2: recombinant mouse BMP-4 (R&D) (ligand)
chain: SPKHHPQRSRKKNKNCRRHSLYVDFSDVGWNDWIVAPPGYQAFYCHGDCPFPLADHLNSTNHAIVQTLVNSVNSSIPKACCVPTELSAISMLYLDEYDKVVLKNYQEMVVEGCGCR
notes: Bought; also called mBMP-4
B3: recombinant mouse BMP-2 (GIBCO) (ligand)
chain: QAKHKQRKRLKSSCKRHPLYVDFSDVGWNDWIVAPPGYHAFYCHGECPFPLADHLNSTNHAIVQTLVNSVNSKIPKACCVPTELSAISMLYLDENEKVVLKNYQDMVVEGCGCR
notes: Bought; also called mBMP-2
B4: mouse PD-L2 on mPD-L2 transfected 300 cells (ligand, UniProt Q9WUL5 20-247, looked up)
chain: LFTVTAPKEVYTVDVGSSVSLECDFDRRECTELEGIRASLQKVENDTSLQSERATLLEEQLPLGKALFHIPSVQVRDSGQYRCLVICGAAWDYKYLTVKVKASYMRIDTRILEVPGTGEVQLTCQARGYPLAEVSWQNVSVPANTSHIRTPEGLYQVTSVLRLKPQPSRNFSCMFWNAHMKELTSAIIDPLSRMEPKVPRTWPLHVFIPACTIALIFLAIVIIQRKRI
notes: whole, on cells; also called 300-mPD-L2

Assays:
[1] = target: T1, recombinant mRGMb-HIS (R&D); assay: ELISA, PD-L2-Ig captured through mRGMb-HIS on BMP-2/4-coated plate, anti-hIgG-HRP
Procedure: (§1) To determine if RGMb binds PD-L2 and BMP-2/4 simultaneously, 96-well ELISA plates were coated with BMP-2/4 as above. mPD-L2-hIgG1/IgA, mPD-L2-hIgG (R&D), mPD-L1-hIgG (R&D) or control-Ig fusion proteins at 10 µg/ml were preincubated with 10 μg/ml mRGMb-HIS (R&D) or buffer alone for 15 min. at room temperature (RT), then added to the plates and incubated for 1h at 37° C. Alternatively, 10 μg/ml mRGMb-HIS (R&D) or buffer alone was added first to the plates and incubated for 1h at 37° C. After wash, mPD-L2-Ig or control-Ig fusion proteins were added and incubated for 1 h at 37° C. Fab₂ goat anti-hIgG-HRP (Jackson ImmunoResearch Laboratories) at 1:10000 was used for detection.

[2] = target: T1, recombinant mRGMb-HIS (R&D); assay: ELISA, BMP-4-coated plate, mRGMb-HIS plus PD-L2-Ig, anti-hIgG-HRP
Excerpt: (§2) FIG. 1 includes nine panels, identified as panels (A), (B), (C), (D), (E), (F), (G), (H), and (I), which show the blocking capacities of RGMb and PD-L2 mAbs and a model for RGMb, PD-L2, Neogenein, BMP, and BMP-receptor interactions. Panels A-C show the capacities of RGMb mAbs and PD-L2 mAbs to block RGMb binding to PD-L2 or to block PD-1 to PD-L2, as determined by cell conjugation assay. […] Binding of mRGMb-HIS was detected by anti-penta-HIS-HRP. […] Binding of Ig fusion proteins was detected with anti-hIgG-HRP. Similar results were also seen for BMP-2. […] Data shown in Panels 1A-1C and 1F-1H are representative of 2 or more independent experiments.
as §1

[3] = target: B1; assay: ELISA, PD-L2-Ig added to BMP-4-coated plate without RGMb, anti-hIgG-HRP (FIG. 1E)
Excerpt: as §2, §1

[4] = target: T1, recombinant mRGMb-HIS (R&D); assay: ELISA, BMP-2-coated plate, mRGMb-HIS plus PD-L2-Ig, anti-hIgG-HRP
Procedure: as §1

[5] = target: B1; assay: ELISA, PD-L2-Ig added to BMP-2-coated plate without RGMb, anti-hIgG-HRP
Procedure: as §1

[6] = target: T2, mouse RGMb on mRGMb transfected 300 …; assay: cell conjugation assay / flow cytometry / ELISA of FIG. 1

Binder: B1
binding result [1]: binds

Binder: B2
binding result [2]: binds
binding result [3]: no binding

Binder: B3
binding result [4]: binds
binding result [5]: no binding

Binder: B4
binding result [6]: binds

From patent US20160347844A1 (Dana-Farber, published 2016)
